Columns and labels:
[1] = molecular target: T1, IRDBP-1 C-terminal 1503 bp coding region (Trx-IRDBP-1) (Rattus norvegicus, UniProt Q5ZQU0 SEQ:548-1047); assay: EMSA; self-competed; supershifted by anti-IRDBP-1 cAb; printed probe sequence from Example 7; conditions: tags: His6-thioredoxin fusion (pET-32a)
Source text: (§1) This band was competed by the IGFBP-3 IRE, but not by the unrelated NFκB oligonucleotide (FIG. 26, left panel). In addition, the gel-shift band was supershifted with the anti-IRDBP-1 cAb antibody, but not with preimmune serum (FIG. 26, right panel).

[2] = molecular target: T1, IRDBP-1 C-terminal 1503 bp coding …; assay: competition; did not compete IGFBP-3 IRE band; conditions: tags: His6-thioredoxin fusion (pET-32a)
Source text: as §1

T1 sequence (Q5ZQU0 904-1403): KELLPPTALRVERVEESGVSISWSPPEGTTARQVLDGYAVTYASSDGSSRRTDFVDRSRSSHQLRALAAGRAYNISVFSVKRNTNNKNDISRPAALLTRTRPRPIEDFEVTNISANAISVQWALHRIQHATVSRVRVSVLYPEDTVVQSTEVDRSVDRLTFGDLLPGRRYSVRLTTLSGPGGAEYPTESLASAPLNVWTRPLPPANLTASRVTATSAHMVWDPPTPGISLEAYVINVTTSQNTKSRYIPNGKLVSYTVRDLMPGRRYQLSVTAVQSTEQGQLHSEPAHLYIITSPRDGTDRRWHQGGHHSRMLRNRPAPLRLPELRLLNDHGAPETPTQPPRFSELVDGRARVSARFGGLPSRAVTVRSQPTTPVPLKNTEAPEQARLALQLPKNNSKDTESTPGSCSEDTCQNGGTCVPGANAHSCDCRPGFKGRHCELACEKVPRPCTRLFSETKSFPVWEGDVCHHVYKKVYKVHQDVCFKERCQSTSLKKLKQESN

Binder	binding result [1]	binding result [2]
IGFBP-3 IRE oligo (Example 7) (dsDNA) DNA 1: AATTCAAGGGTATCCAGGAAAGTCTCCTTCAAG DNA 2: CTTGAAGGAGACTTTCCTGGATACCCTTGAATT	binds	–
NFkB consensus (dsDNA) DNA 1: GGGACTTTCCGGGACTTTCC DNA 2: GGAAAGTCCCGGAAAGTCCC	–	no binding
